A word on the Kd: it is a measure of binding affinity in units of concentration. A higher Kd goes with weaker binding. For orientation: stoichiometry N means the number of molecules, sites or subunits per partner or assembly.

Sequences and labels used below:
B1: GST-Rng10(751–1,038) (domain or fragment)
chain: SNSKAPAIEETTTTKVEVVAAHDAVSISSNSSTHKSHSEPLNRDELEVAALSRGSLPEPPKPNKQIVVQEEDQRDTLSLKTSTTGLSSHSKSAENNSTQQSTTSPSINSGASADAVSSGISKKADNSETNLNYFATLDAFVKSPLMSFDGLGELGSTDQRYNFFNQKIQEYSAYDSGLDNWIQFCLEKDGEAPKEAPPPPRSEPVSTTTKLAKRITQPSLSPARSTVTITHNIATEAKKKSKSAANDILHLFKKKAKSEQSNAKSSSSSIKESKKMKTLFGKKLGFKS
B2: GST-Rng10(751–950) (domain or fragment)
chain: SNSKAPAIEETTTTKVEVVAAHDAVSISSNSSTHKSHSEPLNRDELEVAALSRGSLPEPPKPNKQIVVQEEDQRDTLSLKTSTTGLSSHSKSAENNSTQQSTTSPSINSGASADAVSSGISKKADNSETNLNYFATLDAFVKSPLMSFDGLGELGSTDQRYNFFNQKIQEYSAYDSGLDNWIQFCLEKDGEAPKEAPPPP
B3: His6-Rga7(1–320) (domain or fragment)
chain: MLSAPSSSTTPASPPTSPPNTTSSDDFAVLKEPKVEAILNSELGLAILNDRIKDYLLTCKELAGFFKKRSILEEESGKNLQKLAKSYLETFQSKHHSPQSFSASVITSMEIHEQLANHSLTLQKTLSAFSDQVIEFHKNAERKRKSIKEYAKKQENAYLEAVMQMDKSKSRFKGAETEYNRALDNKNTGDSQKKVGFFKPKSNAQLTKLEDEARLKAENAESDMHSKIENAQNVQKQLLCIHRPNYIKQFFSLQREIESSLIANYLRYTKLCESNTLLNGLTIRPQKPTPTNCGLQHALDNINANTDFVQYVLHASIKHE

For the data set “His6-Rga7(1–320)”, the target named is B3. The experiment in a line: supernatant depletion assay.
The data set “AUC” concerns the molecule itself. Put plainly: AUC.

B1 yielded a Kd with His6-Rga7(1–320) of 0.43 µM.

With B2, the affinity in the data set with His6-Rga7(1–320), expressed as Kd, was 0.69 µM.

As for B3, the “stoichiometry N” value in the data set “AUC” was determined as 2.

The values are drawn from publication PMC6425953 (Cell reports, 2019).
